Measurements taken from patent US9358023B2, “Systems and methods for opening of a tissue barrier” (priority 2009, dated 2016).

B1: BDNF: BDNF Human Recombinant produced in Escherichia Coli, homodimer, non-glycosylated, 2×119 amino acids, 27 kDa (protein, UniProt P23560 19-247, looked up)
Neurotrophic factor BDNF …: APMKEANIRGQGGLAYPGVRTHGTLESVNGPKAGSRGLTSLADTFEHVIEELLDEDQKVRPNEENNKDADLYTSRVMLSSQVPLEPPLLFLLEEYKNYLDAANMSMRVRRHSDPARRGELSVCDSISEWVTAADKKTAVDMSGGTVTVLEKVPVSKGQLKQYFYETKCNPMGYTKEGCRGIDKRHWNSQCRTTQSYVRALTMDSKKRIGWRFIRIDTSCVCTLTIKRGR
modifications: E. coli-expressed, non-glycosylated homodimer
notes: BDNF Human Recombinant produced in Escherichia Coli, homodimer, non-glycosylated, 2×119 amino acids, 27 kDa

Assays:
blood-brain barrier [1] = experiment: Volume and duration of FUS-induced BBB opening with size-isolated microbubbles, by Gd-DTPA-BMA contrast-enhanced T1 MRI; assay type: in vivo, mice (C57BL/6)
Text: Acoustic waves used were generated by a single-element, spherical-segment FUS transducer (center frequency: 1.5 MHz, focal depth: 60 mm, radius: 30 mm; Imasonic, France), which was driven by a function generator (Agilent, Palo Alto, Calif.) through a 50-dB power amplifier (E&I, Rochester, N.Y.) (for example as shown in FIG. 5). A central-void (radius: 11.2 mm) of the therapeutic transducer held a pulse-echo ultrasound transducer (center frequency: 10 MHz, focal length: 60 mm), which was used for imaging, with their two foci aligned. The imaging transducer was driven by a pulser-receiver (Olympus, Waltham, Mass.) connected to a digitizer (Gage Applied Technologies, Lachine, QC, Canada). A cone filled with degassed and distilled water was mounted onto the transducer system and was fitted with a polyurethane membrane (Trojan; Church & Dwight Co., Princeton, N.J.). The transducers were attached to a computer-controlled 3D positioning system (Velmex, Lachine, QC, Canada). The targeting procedure has been described herein. […]
BBB opening in the murine hippocampus was confirmed using a 9.4 T system (Broker Medical; Boston, Mass.). […] Vital signals were monitored and respiration rate was approximately 55 breaths/min. […] In the five cases where signal enhancement was detected on day 5, MRI sessions were repeated on day 7. […]

[2] = test system: phosphorylated TrkB receptor (pTrkB Y816 and Y515); experiment: Immunohistochemistry DAB stain intensity after FUS and BDNF: phosphorylated TrkB; assay type: in vivo, mice (C57Bl6)
Experimental: (§1) Immunohistochemistry was performed only in the case of BDNF. Five primary antibodies were used: two against phosphorylated TrkB receptor (p-Y816 rabbit polyclonal [ab75173] and p-Y515, rabbit polyclonal [ab51187]) purchased from Abeam Inc. (Cambridge, Mass.), and three against phosphorylated Akt (p-S473 rabbit monoclonal [#4060]), phosphorylated MAPK (p-T202/T204 rabbit monoclonal [#4370]), and phosphorylated CREB (p-S133 rabbit monoclonal [#9198]), all purchased from Cell Signaling Technology (Danvers, Mass.). Slides containing thin frozen sections (5-10 μm) were dried and placed in a citrate buffer (pH 6.0) for antigen retrieval using a microwave. Slides were allowed to cool for 20 minutes prior to a PBS rinse (3×5 min) and then incubated in 0.3% hydrogen peroxide in PBS (five min) to block endogenous peroxidase activity. Slides were washed again in PBS (3×5 min) and blocked in 10% normal goat serum with 0.1% BSA for 20 minutes. After blocking solution was removed, the primary antibodies were diluted in DAKO antibody diluent solution (1:50-1:300) and incubated for 60 minutes at room temperature. Slides were washed in PBS for five min and incubated with biotinylated secondary antibody (goat anti-rabbit 1:200; Vector Laboratories, Burlingame, Calif.) for 30 minutes at room temperature. […]

[3] = test system: phosphorylated MAPK (T202-T204); experiment: Immunohistochemistry DAB stain intensity after FUS and BDNF: phosphorylated MAPK; assay type: in vivo, mice (C57Bl6)
Experimental: as §1

[4] = test system: phosphorylated CREB (S133); experiment: Immunohistochemistry DAB stain intensity after FUS and BDNF: phosphorylated CREB; assay type: in vivo, mice (C57Bl6)
Experimental: as §1

[5] = test system: phosphorylated Akt (S473); experiment: Immunohistochemistry DAB stain intensity after FUS and BDNF: phosphorylated Akt; assay type: in vivo, mice (C57Bl6)
Experimental: as §1

[6] = in vivo; cited from earlier work
[7] = test system: ACHE (acetylcholine esterase); settings: dose-dependent induction of ACHE, rat basal forebrain primary septal culture; according to the supplier; cited from earlier work
blood-brain barrier [8] = experiment: Delivery of Alexa Fluor 594-tagged BDNF across the FUS-opened BBB, fluorescence of brain sections; settings: mouse sacrificed 20 min after sonication
[9] = BDNF-administered mice, sacrificed 20-30 min, N=3

| Molecule | time to peak signal enhancement in the sonicated hippocampus after IP injection (blood-brain barrier [1]) | mean percent change in DAB stain intensity between left and right hippocampal regions, pTrkB (Y515 and Y816 combined) [2, 9] | difference in DAB intensity between left sonicated hippocampus and control, pTrkB ([2]; mouse expiring 3 min after BDNF injection) | mean percent change in DAB stain intensity between left and right hippocampal regions, pMAPK [3, 9] | difference in DAB intensity between sonicated and control hippocampus, pMAPK ([3]; mouse sacrificed 3 min) | difference in DAB intensity between left sonicated hippocampus and control, pCREB ([4]; 3-min case) | mean percent change in DAB stain intensity between left and right hippocampal regions, pCREB [4, 9] | difference in DAB intensity between left sonicated hippocampus and control, pAkt ([5]; 3-min case) | mean percent change in DAB stain intensity, pAkt, BDNF-administered mice vs control mice ([5]; sacrificed 20-30 min) | half-life of circulating BDNF [6] | ED50 [7] | fluorescent intensity, sonicated hippocampus (left) vs un-sonicated hippocampus (right) (blood-brain barrier [8]) |
| --- | --- | --- | --- | --- | --- | --- | --- | --- | --- | --- | --- | --- |
| CNC(=O)CN(CCN(CCN(CC(=O)[O-])CC(=O)NC)CC(=O)[O-])CC(=O)[O-].[Gd+3] [Gd-DTPA-BMA] | approximately 1 h |  |  |  |  |  |  |  |  |  |  |  |
| B1 |  | 25.22% | observed | 60.58% | No difference in DAB intensity | not | 56.91% | not | similar | less than 10 min | 0.05 µg/mL | much higher fluorescent intensity |
